From PMC4020579 (Biochemistry, 2014) come the findings set out here.

A short description of data set [1]: Solubility of RPA32C in crystallization screening. As to conditions: all sparse matrix conditions examined, standard buffer conditions. Type of data set: physicochemical.
The target in data set [2] is RPA32_(172–270), the previously reported RPA32C construct of the replication protein A 32 kDa subunit (UniProt P15927 172-270). Kind of data set: ITC.
Data set [3] concerns the target RPA32C, the optimized RPA32_(202–270) construct (C-terminal winged-helix domain of the RPA 32 kDa subunit) (UniProt P15927 202-270). Kind of data set: NMR titration.

Chain of RPA32C, the optimized RPA32_(202–270) construct (C-terminal winged-helix domain of the RPA 32 kDa subunit) (P15927 202-270): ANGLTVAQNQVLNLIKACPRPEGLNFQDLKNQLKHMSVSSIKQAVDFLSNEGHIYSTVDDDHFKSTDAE
Chain of RPA32_(172–270), the previously reported RPA32C construct of the replication protein A 32 kDa subunit (P15927 172-270): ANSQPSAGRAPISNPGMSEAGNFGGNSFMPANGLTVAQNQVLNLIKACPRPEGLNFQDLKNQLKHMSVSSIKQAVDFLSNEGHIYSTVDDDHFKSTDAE

Regarding “RPA32C: optimized C-terminal winged-helix domain construct of the RPA 32 kDa subunit, residues 202–270”, the “concentration at which soluble” value in data set [1] was at least 40000 µg/mL. With MSLPLTEEQRKKIEENRQKALARRAEKLLAEQ (peptide, UniProt Q9NZC9 1-32, looked up) [SMARCAL1_(1–32), SMARCAL1 residues 1–32 containing the RPA binding motif (RBM)], the affinity in data set [2], expressed as Kd, was 2500 ± 100 nM. As to EEQRKKIEENRQKALARRAEKLLAEQ (peptide, UniProt Q9NZC9 7-32, looked up) [SMARCAL1_(7–32) peptide], the binding result in data set [3] is “binds”.
